The values below come from patent US20150218538A1 (UNIVERSITY OF NORTH CAROLINA AT CHAPEL HILL, published 2015).

For experiment [1], the target named is T1, Gαq activated with aluminum fluoride (Gαq-GDP plus aluminum fluoride) (UniProt P50148 35-359).
T1 sequence (looked up): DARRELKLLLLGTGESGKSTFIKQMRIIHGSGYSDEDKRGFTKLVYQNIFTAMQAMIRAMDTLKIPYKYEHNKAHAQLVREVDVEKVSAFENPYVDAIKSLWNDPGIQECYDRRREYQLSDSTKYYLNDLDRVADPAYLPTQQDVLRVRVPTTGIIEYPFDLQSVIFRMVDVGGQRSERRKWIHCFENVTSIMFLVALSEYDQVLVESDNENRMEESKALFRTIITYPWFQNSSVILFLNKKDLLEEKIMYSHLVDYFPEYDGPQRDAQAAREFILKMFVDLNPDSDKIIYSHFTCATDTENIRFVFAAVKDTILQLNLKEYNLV
Kind of experiment: cell-based or functional assay.

The target of experiment [2] is chimeric form of Gαq (Gαq/i), activated with aluminum fluoride. The experiment is described as follows: fluorescence polarization in 384-well plates; 30 µM unlabeled 27-mer, 200 nM TAMRA-27-mer, 1.5 µM Gαq/i with aluminum fluoride; competitor: TAMRA-27-mer.
Experiment [3] has as its target T1, Gαq activated with aluminum fluoride …. Kind of experiment: fluorescence polarization; Gαq activated with aluminum fluoride titrated into TAMRA-labeled peptide. Background: In fluorescence polarisation assays a small probe gives low polarisation when free and higher when bound to something large.
Description: (§1) Quantification of Gαq binding to peptides corresponding to the HTH of PLβ3. […] KD and IC₅₀ values were derived from three independent experiments.
Experiment [4] has the same target. Kind of experiment: fluorescence polarization competition; unlabeled PLC-β3 added to labeled 25-mer (400 nM) and Gαq (4 µM); competitor: TAMRA-25-mer.
Description: as §1

Ends that are not written are not given here.

Consider “peptide corresponding to the HTH of PLC-β3 and containing an I860A substitution (from UniProt Q01970 852-878)”, for which the phospholipase activity of PLC-β3 activated by Gαq in lipid vesicles (IC50) in experiment [1] stood at 0.1 µM.

In turn, “unlabeled 27-mer (from UniProt Q01970 852-878) (peptide)” registered a percent decrease in fluorescence polarization in experiment [2] of 50 percent.

B1: TAMRA-25-mer (25-residue peptide spanning the entire helix-turn-helix of PLC-β3, labeled with TAMRA) (peptide)
peptide: HQDYAEALINPIKHVSLMDQRARQL
modifications: also: TAMRA label, position not given here
notes: also called labeled 25-mer; 25 residue peptide of PLC-β3
Take B1: in experiment [1], the “phospholipase activity of PLC-beta3 activated by G-alpha-q in lipid vesicles, as a function of TAMRA-25-mer concentration (IC50)” value is around 1 microMolar. The Kd in experiment [3] is around 6 µM.

B2: full-length PLC-β3 (wild type) (enzyme, UniProt Q01970 2-1234, looked up)
chain: AGAQPGVHALQLEPPTVVETLRRGSKFIKWDEETSSRNLVTLRVDPNGFFLYWTGPNMEVDTLDISSIRDTRTGRYARLPKDPKIREVLGFGGPDARLEEKLMTVVSGPDPVNTVFLNFMAVQDDTAKVWSEELFKLAMNILAQNASRNTFLRKAYTKLKLQVNQDGRIPVKNILKMFSADKKRVETALESCGLKFNRSESIRPDEFSLEIFERFLNKLCLRPDIDKILLEIGAKGKPYLTLEQLMDFINQKQRDPRLNEVLYPPLRPSQARLLIEKYEPNQQFLERDQMSMEGFSRYLGGEENGILPLEALDLSTDMTQPLSAYFINSSHNTYLTAGQLAGTSSVEMYRQALLWGCRCVELDVWKGRPPEEEPFITHGFTMTTEVPLRDVLEAIAETAFKTSPYPVILSFENHVDSAKQQAKMAEYCRSIFGDALLIEPLDKYPLAPGVPLPSPQDLMGRILVKNKKRHRPSAGGPDSAGRKRPLEQSNSALSESSAATEPSSPQLGSPSSDSCPGLSNGEEVGLEKPSLEPQKSLGDEGLNRGPYVLGPADREDEEEDEEEEEQTDPKKPTTDEGTASSEVNATEEMSTLVNYIEPVKFKSFEAARKRNKCFEMSSFVETKAMEQLTKSPMEFVEYNKQQLSRIYPKGTRVDSSNYMPQLFWNVGCQLVALNFQTLDVAMQLNAGVFEYNGRSGYLLKPEFMRRPDKSFDPFTEVIVDGIVANALRVKVISGQFLSDRKVGIYVEVDMFGLPVDTRRKYRTRTSQGNSFNPVWDEEPFDFPKVVLPTLASLRIAAFEEGGKFVGHRILPVSAIRSGYHYVCLRNEANQPLCLPALLIYTEASDYIPDDHQDYAEALINPIKHVSLMDQRARQLAALIGESEAQAGQETCQDTQSQQLGSQPSSNPTPSPLDASPRRPPGPTTSPASTSLSSPGQRDDLIASILSEVAPTPLDELRGHKALVKLRSRQERDLRELRKKHQRKAVTLTRRLLDGLAQAQAEGRCRLRPGALGGAADVEDTKEGEDEAKRYQEFQNRQVQSLLELREAQVDAEAQRRLEHLRQALQRLREVVLDANTTQFKRLKEMNEREKKELQKILDRKRHNSISEAKMRDKHKKEAELTEINRRHITESVNSIRRLEEAQKQRHDRLVAGQQQVLQQLAEEEPKLLAQLAQECQEQRARLPQEIRRSLLGEMPEGLGDGPLVACASNGHAPGSSGHLSGADSESQEENTQL
notes: mature; also called PLC-beta3; unlabeled PLC-β3
For B2, the IC50 in experiment [4] is around 1 µM.

Broadly, the Kd is the concentration at which binding is half-saturated. Broadly, the IC50 is the midpoint of a concentration-inhibition curve.
